Our source for the binding result and A450 values is patent publication US20210346432A1 (Memorial Sloan Kettering, published 2021).

No end group written: not given here. *: point of attachment. Biotin = O=C1N[C@H]2[C@H](CS[C@H]2CCCCC(=O)*)N1

For test [1], the target named is T1, ET140-p1 (human).
T1 construct: also called peptide 1; ET140-pl
T1 peptide: Biotin-SGSGLQMAGQCSQNEYFDS
In words: peptide ELISA, biotin peptide on streptavidin plate. Here is the method: (§1) The peptides were coated onto Streptavidin plates at 2 ug/mL in PBST (PBS+0.05% Tween-20). After washing and blocking with 3% BSA. […] “mIgG1” used in all Examples represents that the variable region is fully human and the Fc part is mouse IgG1. Then HRP anti-mouse IgG detection antibody was added to each well. Finally, the color was developed using TMB substrate. A450 was recorded for data analysis.
In general terms: In an ELISA, binding on a coated surface is turned into a signal by an enzyme label.

In test [2] the target is T2, ET140-p2 (human).
T2 construct: also called peptide 2
T2 peptide: Biotin-SGSGQMAGQCSQNEYFDSL
Described as above. Here is the method: as §1

Test [3] addresses T3, ET140-p4 (human).
T3 construct: also called peptide 4
T3 peptide: Biotin-SGSGAGQCSQNEYFDSLLH
The description is as above. On the procedure: as §1

Test [4] has as its target T4, ET140-p5 (human).
T4 construct: also called peptide 5
T4 peptide: Biotin-SGSGGQCSQNEYFDSLLHA
The description is as above. Here is the method: as §1

For test [5], the target named is T5, ET140-p6 (human, cysteine pairing not given here).
T5 construct: also called peptide 6
T5 peptide: Biotin-SGSGQCSQNEYFDSLLHAC
The description is as above. Here is the method:
as §1

The target in test [6] is T6, ET140-p7 (human, cysteine pairing not given here).
T6 construct: also called peptide 7
T6 peptide: Biotin-SGSGCSQNEYFDSLLHACI
Described as above. Here is the method:
as §1

Test [7] addresses T7, ET140-p9 (human, cysteine pairing not given here).
T7 construct: also called peptide 9
T7 peptide: Biotin-SGSGQNEYFDSLLHACIPC
Described as above. On the procedure:
as §1

The target of test [8] is T8, ET140-p10 (human, cysteine pairing not given here).
T8 construct: also called peptide 10
T8 peptide: Biotin-SGSGNEYFDSLLHACIPCQ
Described as above. Here is the method:
as §1

The target in test [9] is T9, ET140-p11 (human, cysteine pairing not given here).
T9 construct: also called peptide 11; ET140-pll
T9 peptide: Biotin-SGSGEYFDSLLHACIPCQL
Described as above. Here is the method:
as §1

Test [10] has as its target T10, ET140-p18 (human, cysteine pairing not given here).
T10 construct: also called peptide 18
T10 peptide: Biotin-SGSGHACIPCQLRCSSNTP
The test is described as above. Here is the method:
as §1

Test [11] addresses T11, ET140-p21 (human, cysteine pairing not given here).
T11 construct: also called peptide 21
T11 peptide: Biotin-SGSGIPCQLRCSSNTPPLT
The description is as above. Here is the method:
as §1

Test [12] has as its target T12, ET140-p22 (human, cysteine pairing not given here).
T12 construct: also called peptide 22
T12 peptide: Biotin-SGSGPCQLRCSSNTPPLTC
Described as above. Here is the method:
as §1

In test [13] the target is T13, ET140-p24 (human, cysteine pairing not given here).
T13 construct: also called peptide 24
T13 peptide: Biotin-SGSGQLRCSSNTPPLTCQR
The description is as above. On the procedure: as §1

Test [14] has as its target T14, ET140-p25 (human, cysteine pairing not given here).
T14 construct: also called peptide 25
T14 peptide: Biotin-SGSGLRCSSNTPPLTCQRY
Described as above. Here is the method:
as §1

The target in test [15] is T15, ET140-p26 (human, cysteine pairing not given here).
T15 construct: also called peptide 26
T15 peptide: Biotin-SGSGRCSSNTPPLTCQRYC
Described as above. Here is the method:
as §1

Test [16] deals with T16, ET140-p27 (human, cysteine pairing not given here).
T16 construct: also called peptide 27
T16 peptide: Biotin-SGSGCSSNTPPLTCQRYCN
The description is as above. On the procedure:
as §1

Test [17] deals with T17, ET140-p28 (human, cysteine pairing not given here).
T17 construct: also called peptide 28
T17 peptide: Biotin-SGSGSSNTPPLTCQRYCNA
The description is as above. On the procedure: as §1

Test [18] has as its target T18, ET140-p29 (human, cysteine pairing not given here).
T18 construct: also called peptide 29
T18 peptide: Biotin-SGSGSNTPPLTCQRYCNAS
Described as above. Here is the method:
as §1

Test [19] concerns the target T19, ET140-p30 (human, cysteine pairing not given here).
T19 construct: also called peptide 30
T19 peptide: Biotin-SGSGNTPPLTCQRYCNASV
Described as above. Here is the method: as §1

The target of test [20] is T20, ET140-p33 (human, cysteine pairing not given here).
T20 construct: also called peptide 33
T20 peptide: Biotin-SGSGPLTCQRYCNASVTNS
Described as above. On the procedure: as §1

Test [21] has as its target T21, ET140-p36 (human, cysteine pairing not given here).
T21 construct: also called peptide 36
T21 peptide: Biotin-SGSGCQRYCNASVTNSVKG
Described as above. On the procedure: as §1

The target in test [22] is T22, ET140-p37 (human).
T22 construct: also called peptide 37
T22 peptide: Biotin-SGSGQRYCNASVTNSVKGT
The test is described as above. On the procedure: as §1

The target in test [23] is T23, ET140-p38 (human).
T23 construct: also called peptide 38
T23 peptide: Biotin-SGSGRYCNASVTNSVKGTN
Described as above. Here is the method:
as §1

Test [24] addresses T24, ET140-p39 (human).
T24 construct: also called peptide 39
T24 peptide: Biotin-SGSGYCNASVTNSVKGTNA
Described as above. On the procedure: as §1

The target of test [25] is T14, ET140-p25. In words: peptide ELISA on streptavidin plate, antibody 1 ug/mL. Here is the method:
as §1

Test [26] addresses T15, ET140-p26. The test is described as above. Here is the method:
as §1

The target of test [27] is T1, ET140-p1. Nature of the test: peptide ELISA on streptavidin plate. Here is the method: as §1
The target of test [28] is T3, ET140-p4. Nature of the test: peptide ELISA on streptavidin plate. On the procedure:
as §1

Test [29] addresses T25, ET140-p16 (human, cysteine pairing not given here).
T25 construct: also called peptide 16
T25 peptide: Biotin-SGSGLLHACIPCQLRCSSN
In words: peptide ELISA on streptavidin plate. Here is the method: as §1

Test [30] deals with T10, ET140-p18. Nature of the test: peptide ELISA on streptavidin plate. On the procedure:
as §1

Test [31] deals with T11, ET140-p21. In words: peptide ELISA on streptavidin plate. On the procedure:
as §1

The target in test [32] is T18, ET140-p29. In words: peptide ELISA on streptavidin plate. On the procedure: as §1
Test [33] concerns the target T26, ET140-p34 (human, cysteine pairing not given here).
T26 construct: also called peptide 34
T26 peptide: Biotin-SGSGLTCQRYCNASVTNSV
In words: peptide ELISA on streptavidin plate. Here is the method:
as §1

B1: ET140-204 mIgG1 (antibody, V domains shown)
VH: EVQLVQSGAEMKKPGASLKLSCKASGYTFIDYYVYWMRQAPGQGLESMGWINPNSGGTNYAQKFQGRVTMTRDTSISTAYMELSRLRSDDTAMYYCARSQRDGYMDYWGQGTLVTVSS
VL: QSALTQPASVSASPGQSIAISCTGTSSDVGWYQQHPGKAPKLMIYEDSKRPSGVSNRFSGSKSGNTASLTISGLQAEDEADYYCSSNTRSSTLVFGGGTKLTVLG
notes: also called ET140-54 mIgG1; ET140-54
For B1, the binding result in [1], in test [2], in [3], in [4], in test [5] and in test [6] was “no binding (tested: 1 ug/mL)” each time. For the same molecule, the binding result in test [7], in test [8], in test [9], in test [10], in [11] and in [12] was “no binding (tested: 1 ug/mL)” in each case. The binding result in [13], in test [14], in [15], in test [16], in test [17] and in test [18] was “no binding (tested: 1 ug/mL)” each time. Also, the binding result in test [19], in test [20], in test [21], in test [22], in [23] and in test [24] was “no binding (tested: 1 ug/mL)” in each case. The results for the A450 in test [25] and in [26] were 0.494 and 0.2, respectively.

B2: ET140-174 mIgG1 (antibody, V domains shown)
VH: EVQLVQSGAEVKKPGESLKISCKGSGYSFTSYWIGWVRQMPGKGLEWMGIIYPGDSDTRYSPSFQGHVTISADKSISTAYLQWSSLKASDTAMYYCARYSGSFDNWGQGTLVTVSS
VL: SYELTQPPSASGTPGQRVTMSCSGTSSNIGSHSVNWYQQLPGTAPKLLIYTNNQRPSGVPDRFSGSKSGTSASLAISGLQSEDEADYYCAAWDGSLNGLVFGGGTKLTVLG
notes: also called ET140-24 mIgG1; ET140-24
For B2, the binding result in test [1], in [2], in [3], in [4], in test [5] and in test [6] was “no binding (tested: 1 ug/mL)” throughout. For the same molecule, the binding result in [7], in test [8], in test [9], in test [10], in test [11] and in test [12] was “no binding (tested: 1 ug/mL)” in each case. The binding result in [13], in [14], in test [15], in test [16], in test [17] and in test [18] was “no binding (tested: 1 ug/mL)” each time. In addition, the binding result in test [19], in test [20], in [21], in test [22], in [23] and in test [24] was “no binding (tested: 1 ug/mL)” in each case. The values for the A450 in [25] and in test [26] were 0.537 and 0.212, respectively.

B3: ET140-153 mIgG1 (antibody, V domains shown)
VH: QVQLVQSGAEVKKPGSSVKVSCKASGGTFSSYAISWVRQAPGQGLEWMGRIIPILGIANYAQKFQGRVTITADKSTSTAYMELSSLRSEDTAVYYCARGGYYSHDMWSEDWGQGTLVTVSS
VL: LPVLTQPPSASGTPGQRVTISCSGRSSNIGSNSVNWYRQLPGAAPKLLIYSNNQRPPGVPVRFSGSKSGTSASLAISGLQSEDEATYYCATWDDNLNVHYVFGTGTKVTVLG
notes: also called ET140-3 mIgG1; ET140-3
As for B3, the binding result in test [27], in test [28], in test [29], in test [30], in test [31] and in test [32] was “no binding (tested: 1 ug/mL)” each time. Besides, in test [33], the binding result was “no binding (tested: 1 ug/mL)”.
